Reference: patent publication US20230136331A1 (ILDONG PHARMACEUTICAL, published 2023)

Target: T1, human TIGIT (human, UniProt Q495A1 22-141)
T1 construct: also called hTIGIT
T1 sequence (looked up): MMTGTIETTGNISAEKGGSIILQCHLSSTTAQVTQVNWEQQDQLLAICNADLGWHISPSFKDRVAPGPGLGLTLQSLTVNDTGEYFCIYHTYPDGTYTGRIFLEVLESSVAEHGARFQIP
Assay: SPR, captured by anti-human Fc, hTIGIT analyte
Excerpt: The sensorgrams for reference channel Fc1 and buffer channel were subtracted from the test sensorgrams.

B1: Tiragolumab (antibody, human IgG1, kappa, V domains shown)
VH: EVQLQQSGPGLVKPSQTLSLTCAISGDSVSSNSAAWNWIRQSPSRGLEWLGKTYYRFKWYSDYAVSVKGRITINPDTSKNQFSLQLNSVTPEDTAVFYCTRESTTYDLLAGPFDYWGQGTLVTVSS
VL: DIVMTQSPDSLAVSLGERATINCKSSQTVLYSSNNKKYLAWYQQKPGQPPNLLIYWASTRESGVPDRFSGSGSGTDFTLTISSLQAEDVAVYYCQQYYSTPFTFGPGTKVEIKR
notes: also called anti-TIGIT antibody; control antibody
- Kd: 0.0595 nM
